Several values for one entry are separate records, joined by “and”; a condition that tells them apart may be missing. Identical values can stand only once.
Columns and labels:
Settings in all cases: EMSA: 50 mM Tris-HCl pH 7.5, 100 mM KCl, 10 mM MgCl2, room temperature, SPR: same buffer, 25 C, Tb footprinting: 50 mM Tris-HCl pH 8.0, 100 mM NaCl
[1] = target: T1, Hfq wild type (Escherichia coli?) (UniProt P0A6X3); experiment: EMSA
[2] = target: T1, Hfq wild type; experiment: SPR
[3] = target: T1, Hfq wild type; experiment: Tb(III) footprinting

T1 sequence (P0A6X3 whole entry): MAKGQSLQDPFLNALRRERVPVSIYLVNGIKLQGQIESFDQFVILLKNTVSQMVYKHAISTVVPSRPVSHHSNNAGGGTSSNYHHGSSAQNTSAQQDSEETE

Row | Substance | Kd [1] [nM] | Kd [2] | also measured
1 | OxyS sRNA with fhlA220 mRNA | 23 | – | –
2 | fhlA220 mRNA | – | – | Kd ([1]; Hfq hexamer, 10 mM Mg2+): 15 nM
3 | GGCAGUUAGUCAAUGACCUUUUGCACCGCUUUGCGGUGCUUUCCUGGAAGAACAAAAUGUCAUAUACACCGAUGAGUGAUCUCGGACAACAAGGGUUGUUCGACAUCACUCGGACAACAAAUAUUGGAUCCAGCUCG [fhlA53 mRNA] | 70 | 43 nM and 50 nM | binding [3]: binds
4 | fhlA53 mRNA | – | 43 nM and 50 nM and 5 nM | Kd ([1]; 10 mM Mg2+): 70 nM
5 | GCAGCGUUACAUUCCCAUCCACUGGGGAAAGACGCGGCGCUGAUUGGUGAAGUGGUGGAACGUAAAGGUGUUCGUCUUGCCGGUCUGUAUGGCGUGAAACGAACCCUCGAUUUACCACACGCCGAACCGCUUCCGCGUAUAUGCUAAUAAAAUUCUAAAUCUCCUAUAGUUAGUCAAUGACCUUUUGCACCGCUUUGCGGUGCUUUCCUGGAAGAACAAAAUGUCAUAUACACCGAUGAGUGAUCUCGGACAACAAGGGUUGUUCGACAUCACUCGGACAAAUAUUGGAUCCGCUCGG [fhlA220 mRNA] | 15 | – | –
